Results published in the supplement of paper PMC7125110.
± gives the standard error. Fewer inactive variants are shown than the library holds.

B1: glmS ribozyme (parent)
chain: AUAAAAGCGCCAGAACUACAGAAAUGUAGUUGACGAGGAGGAGGUUUAUCGAAUUUUCGGCGGAUGCCUCCAAA

Variants of: B1
Experiment: self-cleavage kobs at 10000 uM GlcN6P; higher = faster cleavage; RNA array
Details: with glucosamine-6-phosphate
Procedure, shortened: (§1)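 Glucosamine-6-phosphate (40 μM to 10 mM) in HEPES/KCl/Mg(OAc)2 buffer was flowed over sequenced MiSeq chips, and tiles were imaged over ~14 h. Barcoded ribozyme variants there had been transcribed in situ by E. coli RNA polymerase and were tracked through a hybridised Cy3 probe at 37 °C. One- or two-exponential decay fits to per-tile medians, normalised to baseline and to non-cleaving reference variants, gave kobs. kcat and KM came from weighted Michaelis–Menten fits across concentrations.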

Variant	self-cleavage kobs at 10000 uM GlcN6P [s⁻¹]
G13A C34G A52C	< 1e-05
A48C C67G	2e-05 ± 7.5e-06
C10A C11U G38C U55C C61A A64U	< 1e-05
C11G G66C	< 1e-05
A6U U45G C67A	4.59e-05 ± 1.8e-05
G7A A33G C68U C70G	5.57e-05 ± 2e-05
C11G G13C G44A	< 1e-05
U46A U56A C67G	0.000316 ± 7.6e-05
C11U A12G A14G G26U	0.00104 ± 0.00024
G9A A36U U65C	< 1e-05
A12C G66C	0.000754 ± 0.00033
A12C C16G G37A C67A C71U	< 1e-05
G9U A14U	< 1e-05
C11G G38U G41A C68G	< 1e-05
A12G U54C	0.001 ± 0.00011
G9C G63A C68G	< 1e-05
A12U C16A C58A	7.98e-05 ± 1.6e-05
G9A A53G G66U	< 1e-05
A12G G21U A53U U69A	0.0001 ± 2.2e-05
C11A A12U A14C	8.7e-05 ± 1.9e-05
C8A A36U C61G G66A	< 1e-05
C11A G35C G41C	< 1e-05

Variant	self-cleavage kobs at 10000 uM GlcN6P [s⁻¹]
C10A U46A A48G	< 1e-05
C10G C34G A36G G44A U45G U57C C61A C70A	< 1e-05
A12C A64U	3.59e-05 ± 5.3e-06
A6C G32A G43U	< 1e-05
A12C G29A A36G	< 1e-05
C11U G29U C70A	8.25e-05 ± 2.8e-05
A6U A15C A48C A64U	< 1e-05
G9U U31G U45A C61A C68A	< 1e-05
A1U U2G A3G A5U G44A	4.04e-05 ± 1.7e-05
C10G A48G G51C	< 1e-05
C8G A14U A52C G59C C71U	< 1e-05
C11G G32U G41U G43U A52C C67A U69A	< 1e-05
C10A A15C C16U G40A G44A C61G	< 1e-05
A12U A14U G29A	0.00021 ± 4.5e-05
G9U U30A U56G	< 1e-05
C11U G38U A42G	< 1e-05
C10G G29A U65C	< 1e-05
C10A G63U C71U	< 1e-05
A6G C11U C34A	< 1e-05
G7A G40C A42U G43U U57C	< 1e-05
C11G A15G G40C U46A G62A A64U	< 1e-05
A12G G13C G35A	< 1e-05

Variant	self-cleavage kobs at 10000 uM GlcN6P [s⁻¹]
G13A G38A A64G	< 1e-05
G7C A14U C67U C68G	< 1e-05
A6C C8U A36C G37U	< 1e-05
G7A A12C G51U	< 1e-05
G7U A14U G29C	< 1e-05
A5U A33C	0.000263 ± 6.3e-05
A6U U54C C71U	0.000136 ± 2.2e-05
A12G A15U U31G	0.000128 ± 2.3e-05
C11U C50A G66A	< 1e-05
C8G C50G C70G	0.000104 ± 2.2e-05
A6C U45C U69G	< 1e-05
U55G U65C	0.000628 ± 0.00013
C8U U54A U69A	0.00115 ± 0.00055
U47A U57C	0.000159 ± 2.5e-05
G7C A42G G43A	< 1e-05
C8U C34G C58G G60U C67U	< 1e-05
A12C G37A U47G	0.000241 ± 4.8e-05
G7A U57C	< 1e-05
A12C U56G C70G	5.35e-05 ± 1.3e-05
A12U A64U C67U	0.00017 ± 3e-05
A12U G44C A53G	0.000245 ± 4.7e-05
A6C G37A C68A	< 1e-05

Variant	self-cleavage kobs at 10000 uM GlcN6P [s⁻¹]
C10G G29U U55C	< 1e-05
G7U G13C G32A	< 1e-05
G9U G59C G63C	< 1e-05
C11A U47C U55A G59U	0.00336 ± 0.00065
A53G C58U	0.000105 ± 9.8e-06
A12G U30G U55G	5.43e-05 ± 1.3e-05
A6U U54C U55G	0.000129 ± 3.3e-05
C8G C10G G40U A52C	< 1e-05
C8U U47G G63A C70A	0.000324 ± 0.00012
A12C G41A C67A	7.76e-05 ± 2.9e-05
G7U C8U A12G C70G	4.36e-05 ± 1.9e-05
G7A C11U C61U U65G C68A	0.000318 ± 0.0001
C10U A39C C61U C68G	< 1e-05
C8A C58U U69G	0.0005 ± 8.7e-05
A12C G51A G59U G66U	< 1e-05
A6C G44A C58U	< 1e-05
A6U C16U U45A	0.000375 ± 6.6e-05
A12U G44U G51A	< 1e-05
C11A A15C U54G	5.7e-05 ± 1.8e-05
A6U G9A G43C A53C C70G	< 1e-05
G13A G44C C67A	9.29e-05 ± 1.9e-05
U45G A48C	0.000117 ± 2.2e-05

Variant	self-cleavage kobs at 10000 uM GlcN6P [s⁻¹]
A6G A12U C16U	5.43e-05 ± 2.1e-05
A12C C16U A52U	0.000334 ± 6.5e-05
A53G U55G G66U	0.00144 ± 0.00029
C11G G32U A39C	< 1e-05
C8U U54A U55A C67G	0.000463 ± 0.00023
A12C G60U C61U	< 1e-05
G9U U30A C71U	< 1e-05
C11G U30A G59C	0.000168 ± 3.9e-05
G9U U31G C34U G59U	< 1e-05
A6U U55A C70U	0.000254 ± 6.5e-05
G9C A36C G43A U47A	< 1e-05
A6G C11A C34U C58U C68G	0.000295 ± 0.0001
G13A C71A	0.000168 ± 3.3e-05
C8U G37C C50G A53U C67A	0.000441 ± 0.00011
G9A A33U G51A A52U U55A	< 1e-05
C11U C34G G38A	< 1e-05
A12U C16A U65C	5.77e-05 ± 1.6e-05
A12U G29C A33U	4.02e-05 ± 1.2e-05
G13A G35A G60U C70A	< 1e-05

Variants of: B1
Experiment: self-cleavage kobs at 2500 uM GlcN6P; higher = faster cleavage; RNA array
Details: with glucosamine-6-phosphate
Procedure, shortened: as §1

Variant	self-cleavage kobs at 2500 uM GlcN6P [s⁻¹]
A48C C67G	2.91e-05 ± 1e-05
U46A U56A C67G	0.000143 ± 6.8e-05
G66U C68U C71G	5.06e-05 ± 2.1e-05
U46A A52G G62U C70U	< 1e-05
C58G C67A C70U C71U	7.14e-05 ± 2.7e-05
U45G G63U C70G	< 1e-05
G59A U69C C70U	< 1e-05
U45A U47G U54G U56C	0.00285 ± 0.00062
U54G U57C	0.000126 ± 2.3e-05
U45G U46G A52G	5.59e-05 ± 2.7e-05
G63C G66C C67G	< 1e-05
U56G G60A U65G	< 1e-05
U49C U55A G62C	< 1e-05
U49C U56G G66C	< 1e-05
C50G C58G G62C	0.000553 ± 0.00021
U45A A48U	0.0011 ± 0.00038
A48G U55A C70A	8.47e-05 ± 2.9e-05
G43C U46G A52G U54G G60A	< 1e-05
C58G G59C C61A G62A C71A	< 1e-05
U49C G63U G66C	< 1e-05
U56C C58U G63A	< 1e-05

Variant	self-cleavage kobs at 2500 uM GlcN6P [s⁻¹]
A53G U57A C68A	4.93e-05 ± 2.2e-05
U49C C68U	< 1e-05
U46G U47A C71A	0.00116 ± 0.00028
U46A A48U G51C	< 1e-05
A53G U56C G60U G62A	< 1e-05
C50U G51C A53U	< 1e-05
G51C G63A C68A	< 1e-05
U45C A48C U65G C70G	< 1e-05
U55G U65C	0.000396 ± 8.6e-05
U47A U57C	0.000104 ± 2.6e-05
A53C U65C	0.000159 ± 3.9e-05
G59U U65A C68U	< 1e-05
U47A G62C C68G C71G	0.000178 ± 4.9e-05
A52U C61G G63C G66A	< 1e-05
C50A U55G C67G	9.38e-05 ± 3.7e-05
A53G C58U	1.96e-05 ± 7.8e-06
G62C A64G C70A	< 1e-05
U46A A48U	6.88e-05 ± 2.5e-05
U69C C70U C71G	3.82e-05 ± 1.3e-05
A48U U69A	2.8e-05 ± 1.3e-05
A53U U56G U65G	0.000913 ± 0.00018

Variant	self-cleavage kobs at 2500 uM GlcN6P [s⁻¹]
U45A G51U U54G G63C	< 1e-05
U45G U47A	0.00816 ± 0.0022
U45G C50U U55A	< 1e-05
U47G C50G	4.35e-05 ± 1.2e-05
U45G U49A U55C	< 1e-05
U45G A48C	5.95e-05 ± 2.2e-05
G44U G62C G66A C67G	< 1e-05
A52C U69G	9.19e-05 ± 4.2e-05
U47G U54G U57C	0.00011 ± 2.6e-05
A53G U55G G66U	0.00112 ± 0.00027
U56G G60U G63C	< 1e-05
U65A C67G C71U	3.53e-05 ± 1.5e-05
U46G G51U G59A	< 1e-05
C50G C58A C68G	9.4e-05 ± 1.9e-05
U45C G66C C71A	6.04e-05 ± 2.8e-05
G43U U56C C67G	< 1e-05
U47C A52U A64G	3.84e-05 ± 1.6e-05
U47C A52G G60C U65G C67A	< 1e-05
A48U G60C C61A	< 1e-05
C50G C68G C70U	7.27e-05 ± 1.1e-05
